The target in assay [1] is T1, human CTLA-4 expressed on the cell surface (human, UniProt P16410 36-223). The experiment in a line: cell-based or functional assay.
The target in assay [2] is T2, His-tagged cynomolgus CTLA-4 (CT4-C5227; Acro Biosystems) (cynomolgus, UniProt G7PL88 36-161).
T2 construct: also called soluble cynomolgus CTLA-4; cyno CTLA-4
The experiment in a line: BLI (Octet), single antigen concentration.

For assay [3], the target named is T1, human CTLA-4 expressed on the cell …. In words: flow cytometry, 10 µg/mL mAb, geometric MFI.
Assay [4] deals with T3, CD27 on CHO cells (UniProt P26842 20-260, limits assumed).
T3 construct: whole, on cells; also called CD27+ CHO cells; irrelevant antigen (CD27)
The experiment in a line: flow cytometry, 10 µg/mL mAb, geometric MFI.

For assay [5], the target named is T3, CD27 on CHO cells. In words: flow cytometry, mixed CTLA-4+ and CD27+ CHO cells. The gist of the method:
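CHO cells stably expressing human CTLA-4 mixed with CD27-expressing CHO cells, then incubated with 10 μg/mL mAb for 30 min at 4 °C. Bound mAb detected with PE anti-human IgG Fc, CD27 cells gated by FITC anti-CD27; cells fixed in 4% paraformaldehyde before flow cytometry.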

Assay [6] concerns the target T4, recombinant human CTLA-4-Fc (7268-CT, R&D Systems) (human, UniProt P16410 36-162).
T4 construct: bought; also called rhCTLA-4-Fc; rhCTLA4-Fc; Fc part of the bought chimera not given
In words: blocking ELISA, plate rhCTLA4-Fc, competitor rhCD80-His. The protocol: (§1) Plates were coated with rhCTLA4-Fc and then blocked with 1×PBST with 5% w/v nonfat dry milk. After blocking a dilution series of the indicated antibody was added to the plate.

The target of assay [7] is T4, recombinant human CTLA-4-Fc (7268-CT, …). The experiment in a line: blocking ELISA, plate rhCTLA4-Fc, competitor rhCD86-His. The protocol:
as §1

T3 sequence (P26842 20-260 limits assumed): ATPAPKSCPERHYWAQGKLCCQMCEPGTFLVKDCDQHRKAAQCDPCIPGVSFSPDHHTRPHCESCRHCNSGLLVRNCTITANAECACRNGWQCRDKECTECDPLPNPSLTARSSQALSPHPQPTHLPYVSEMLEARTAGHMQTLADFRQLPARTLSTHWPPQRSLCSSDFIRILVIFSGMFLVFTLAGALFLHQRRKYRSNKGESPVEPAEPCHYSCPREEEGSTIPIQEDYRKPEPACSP
T1 sequence (P16410 36-223 limits assumed): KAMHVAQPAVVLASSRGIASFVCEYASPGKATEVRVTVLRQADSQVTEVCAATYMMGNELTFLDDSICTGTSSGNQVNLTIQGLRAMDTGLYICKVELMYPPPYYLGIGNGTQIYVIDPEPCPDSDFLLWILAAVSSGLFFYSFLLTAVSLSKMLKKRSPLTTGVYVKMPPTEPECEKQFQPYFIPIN
T4 sequence (P16410 36-162): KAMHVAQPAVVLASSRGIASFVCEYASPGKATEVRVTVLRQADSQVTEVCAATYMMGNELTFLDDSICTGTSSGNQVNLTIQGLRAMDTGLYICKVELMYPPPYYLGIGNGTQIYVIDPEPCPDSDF
T2 sequence (G7PL88 entry or part of it limits assumed, form in doubt): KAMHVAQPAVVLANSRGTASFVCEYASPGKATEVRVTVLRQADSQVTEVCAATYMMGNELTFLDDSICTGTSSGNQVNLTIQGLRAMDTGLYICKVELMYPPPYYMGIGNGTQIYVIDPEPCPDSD

B1: antibody A7 (L7H7) (antibody, V domains shown)
VH: QVQLVESGGGVVQPGRSLRLSCAASGFTLSSFGMHWVRQAPGKGLEWVAVIWYDGSNKYYADSVKGRFIISRDNSKTALYLQMNSLRAEDTAVYYCARAHYFGAFDIWGQGTMVTVSS
VL: not shown
notes: also called aCTLA-4.3; CTLA4.A7
B1: in assay [1], the “Cell-based blocking activity EC50” value is 0.17 µg/mL and the “Cell-based blocking activity max signal (RLU)” value was 63 RLU. Further, the affinity in assay [2], expressed as Kd, was 0.8 nM. Moreover, the “MFI of CTLA-4+ CHO cells” value in assay [3] turned out to be 854. For the same molecule, in assay [4], the “MFI of CD27+ CHO cells” value was found to be 15.3. Besides, the binding result in assay [5] is reported as “no binding (tested: 10 µg/mL)”. In assay [6], the CD80 % inhibition worked out at 92.1% and the half-maximal effective concentration (EC50) was found to be 0.996 µg/mL. In addition, in assay [7], the CD86 % inhibition is 78.8% and the EC50 was found to be 1.98 µg/mL.

B2: antibody A5 (L5H5) (antibody, V domains shown)
VH: QVQLVESGGGVVQPGRSLRLSCAASGFTFSSYGMHWVRQAPGKGLEWVAVIWYDGNNKYYADSVKGRFTISRDNSKNTLYLQMYSLRAEDTAVYYCARGGILAAGIFDYWGQGTLVTVSS
VL: EIVLTQSPGTLSLSPGDRATLSCRASQSGSSSYLAWYQQKPGQAPRLLIYGASSRATGIPDRFSGSGSGTDFTLTISRLEPEDFAVYYCQQYGTSPFTSGPGTKVDIK
notes: also called aCTLA-4.28; CTLA4.A5
Take B2: in assay [1], the “Cell-based blocking activity EC50” value came out at 0.18 µg/mL and the “Cell-based blocking activity max signal (RLU)” value worked out at 548 RLU. In assay [2], the Kd is 2.2 nM. Besides, the “MFI of CTLA-4+ CHO cells” value in assay [3] came to 1030. The “MFI of CD27+ CHO cells” value in assay [4] was found to be 17.2. For the same molecule, the binding result in assay [5] is “no binding (tested: 10 µg/mL)”. Further, in assay [6], the CD80 % inhibition is 96.3% and the concentration giving a half-maximal response (EC50) is 0.0705 µg/mL. In assay [7], the CD86 % inhibition was 90.6% and the half-maximal effective concentration (EC50) worked out at 0.122 µg/mL.

B3: antibody A2 (L2H2) (antibody, V domains shown)
VH: QVQLVESGGGVVQPGRSLRLSCAASGFTFSNYGMNWVRQAPGKGLEWVAVIWYDGRNKHYADSVKGRFTISRDNSKNTLYLQMNSLRAEDTAVYYCARGGDWGPYFDYWGQGTLVTVSS
VL: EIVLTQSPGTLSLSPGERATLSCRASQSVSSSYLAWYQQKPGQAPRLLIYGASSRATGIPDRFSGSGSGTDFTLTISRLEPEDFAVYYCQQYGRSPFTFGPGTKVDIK
notes: also called aCTLA-4.4; CTLA4.A2
Consider B3, for which, in assay [1], the “Cell-based blocking activity EC50” value stood at 0.12 µg/mL and the “Cell-based blocking activity max signal (RLU)” value came out at 413 RLU. Further, the Kd in assay [2] is 3.1 nM. The “MFI of CTLA-4+ CHO cells” value in assay [3] amounted to 1120. For the same molecule, the “MFI of CD27+ CHO cells” value in assay [4] is 11.7. For the same molecule, the binding result in assay [5] is recorded as “no binding (tested: 10 µg/mL)”. Moreover, in assay [6], the CD80 % inhibition worked out at 95.4% and the EC50 was 0.101 µg/mL. In assay [7], the CD86 % inhibition is 91.5% and the EC50 stood at 0.145 µg/mL.

The values are drawn from patent US20230265192A1 (GIGAGEN, published 2023).
